{
  "source": "ChEMBL document CHEMBL1128918",
  "about": "“Deuterium isotope effects on porphobilinogen synthesis catalysed by 5-aminolaevulinic acid dehydratase” (Bioorg Med Chem Lett, 1996)",
  "proteins": {"B1": {"name": "Delta-aminolevulinic acid dehydratase (Homo sapiens), P13716 (protein)", "chain": "MQPQSVLHSGYFHPLLRAWQTATTTLNASNLIYPIFVTDVPDDIQPITSLPGVARYGVKRLEEMLRPLVEEGLRCVLIFGVPSRVPKDERGSAADSEESPAIEAIHLLRKTFPNLLVACDVCLCPYTSHGHCGLLSENGAFRAEESRQRLAEVALAYAKAGCQVVAPSDMMDGRVEAIKEALMAHGLGNRVSVMSYSAKFASCFYGPFRDAAKSSPAFGDRRCYQLPPGARGLALRAVDRDVREGADMLMVKPGMPYLDIVREVKDKHPDLPLAVYHVSGEFAMLWHGAQAGAFDLKAAVLEAMTAFRRAGADIIITYYTPQLLQWLKEE"}},
  "substrate": "NCC(=O)CCC(=O)O",
  "assay": "The Michaelis-Menten rate of reaction catalyzed by ALA dehydratase from Bacillus subtilis measured spectrophotometrically",
  "data": [
    {"protein": "B1", "values": [
      {"measurement": "Km", "result": "241 µM [middle of 4 runs]"}
    ]}
  ]
}
